B1: hK14 (protein, UniProt Q9P0G3 41-267, looked up)
Kallikrein-14: IIGGHTCTRSSQPWQAALLAGPRRRFLCGGALLSGQWVITAAHCGRPILQVALGKHNLRRWEATQQVLRVVRQVTHPNYNSRTHDNDLMLLQLQQPARIGRAVRPIEVTQACASPGTSCRVSGWGTISSPIARYPASLQCVNINISPDEVCQKAYPRTITPGMVCAGVPQGGKDSCQGDSGGPLVCRGQLQGLVSWGMERCALPGYPGVYTNLCKYRSWIEETMRDK
B2: CPXM1 (protein, UniProt Q96SM3 21-734, looked up)
Probable carboxypeptidase X1: APRNSVLGLAQPGTTKVPGSTPALHSSPAQPPAETANGTSEQHVRIRVIKKKKVIMKKRKKLTLTRPTPLVTAGPLVTPTPAGTLDPAEKQETGCPPLGLESLRVSDSRLEASSSQSFGLGPHRGRLNIQSGLEDGDLYDGAWCAEEQDADPWFQVDAGHPTRFSGVITQGRNSVWRYDWVTSYKVQFSNDSRTWWGSRNHSSGMDAVFPANSDPETPVLNLLPEPQVARFIRLLPQTWLQGGAPCLRAEILACPVSDPNDLFLEAPASGSSDPLDFQHHNYKAMRKLMKQVQEQCPNITRIYSIGKSYQGLKLYVMEMSDKPGEHELGEPEVRYVAGMHGNEALGRELLLLLMQFLCHEFLRGNPRVTRLLSEMRIHLLPSMNPDGYEIAYHRGSELVGWAEGRWNNQSIDLNHNFADLNTPLWEAQDDGKVPHIVPNHHLPLPTYYTLPNATVAPETRAVIKWMKRIPFVLSANLHGGELVVSYPFDMTRTPWAARELTPTPDDAVFRWLSTVYAGSNLAMQDTSRRPCHSQDFSVHGNIINGADWHTVPGSMNDFSYLHTNCFEVTVELSCDKFPHENELPQEWENNKDALLTYLEQVRMGIAGVVRDKDTELGIADAVIAVDGINHDVTTAWGGDYWRLLTPGDYMVTASAEGYHSVTRNCRVTFEEGPFPCNFVLTKTPKQRLRELLAAGAKVPPDLRRRLERLRGQKD
B3: TANK (protein, UniProt Q92844 1-425, looked up)
TRAF family member-associated …: MDKNIGEQLNKAYEAFRQACMDRDSAVKELQQKTENYEQRIREQQEQLSLQQTIIDKLKSQLLLVNSTQDNNYGCVPLLEDSETRKNNLTLDQPQDKVISGIAREKLPKVRRQEVSSPRKETSARSLGSPLLHERGNIEKTFWDLKEEFHKICMLAKAQKDHLSKLNIPDTATETQCSVPIQCTDKTDKQEALFKPQAKDDINRGAPSITSVTPRGLCRDEEDTSFESLSKFNVKFPPMDNDSTFLHSTPERPGILSPATSEAVCQEKFNMEFRDNPGNFVKTEETLFEIQGIDPIASAIQNLKTTDKTKPSNLVNTCIRTTLDRAACLPPGDHNALYVNSFPLLDPSDAPFPSLDSPGKAIRGPQQPIWKPFPNQDSDSVVLSGTDSELHIPRVCEFCQAVFPPSITSRGDFLRHLNSHFNGET
B4: SLAMF1 (protein, UniProt Q13291 21-335, looked up)
Signaling lymphocytic …: ASYGTGGRMMNCPKILRQLGSKVLLPLTYERINKSMNKSIHIVVTMAKSLENSVENKIVSLDPSEAGPPRYLGDRYKFYLENLTLGIRESRKEDEGWYLMTLEKNVSVQRFCLQLRLYEQVSTPEIKVLNKTQENGTCTLILGCTVEKGDHVAYSWSEKAGTHPLNPANSSHLLSLTLGPQHADNIYICTVSNPISNNSQTFSPWPGCRTDPSETKPWAVYAGLLGGVIMILIMVVILQLRRRGKTNHYQTTVEKKSLTIYAQVQKPGPLQKKLDSFPAQDPCTTIYVAATEPVPESVQETNSITVYASVTLPES
B5: PDGF subunit B (protein, UniProt P01127 82-190, looked up)
Platelet-derived growth …: SLGSLTIAEPAMIAECKTRTEVFEISRRLIDRTNANFLVWPPCVEVQRCSGCCNNRNVQCRPTQVQLRPVQVRKIEIVRKKPIFKKATVTLEDHLACKCETVAAARPVT
B6: CCL17 (protein, UniProt Q92583 24-94, looked up)
C-C motif chemokine 17: ARGTNVGRECCLEYFKGAIPLRKLKTWYQTSEDCSRDAIVFVTVQGRAICSDPNNKRVKNAVKYLQSLERS
B7: PEBP1 (protein, UniProt P30086 2-187, looked up)
Phosphatidylethanolamine-bindi …: PVDLSKWSGPLSLQEVDEQPQHPLHVTYAGAAVDELGKVLTPTQVKNRPTSISWDGLDSGKLYTLVLTDPDAPSRKDPKYREWHHFLVVNMKGNDISSGTVLSDYVGSGPPKGTGLHRYVWLVYEQDRPLKCDEPILSNRSGDHRGKFKVASFRKKYELRAPVAGTCYQAEWDDYVPKLYEQLSGK
B8: SCARF1 (protein, UniProt Q14162 20-830, looked up)
Scavenger receptor class F …: SELDPKGQHVCVASSPSAELQCCAGWRQKDQECTIPICEGPDACQKDEVCVKPGLCRCKPGFFGAHCSSRCPGQYWGPDCRESCPCHPHGQCEPATGACQCQADRWGARCEFPCACGPHGRCDPATGVCHCEPGWWSSTCRRPCQCNTAAARCEQATGACVCKPGWWGRRCSFRCNCHGSPCEQDSGRCACRPGWWGPECQQQCECVRGRCSAASGECTCPPGFRGARCELPCPAGSHGVQCAHSCGRCKHNEPCSPDTGSCESCEPGWNGTQCQQPCLPGTFGESCEQQCPHCRHGEACEPDTGHCQRCDPGWLGPRCEDPCPTGTFGEDCGSTCPTCVQGSCDTVTGDCVCSAGYWGPSCNASCPAGFHGNNCSVPCECPEGLCHPVSGSCQPGSGSRDTALIAGSLVPLLLLFLGLACCACCCWAPRSDLKDRPARDGATVSRMKLQVWGTLTSLGSTLPCRSLSSHKLPWVTVSHHDPEVPFNHSFIEPPSAGWATDDSFSSDPESGEADEVPAYCVPPQEGMVPVAQAGSSEASLAAGAFPPPEDASTPFAIPRTSSLARAKRPSVSFAEGTKFAPQSRRSSGELSSPLRKPKRLSRGAQSGPEGREAEESTGPEEAEAPESFPAAASPGDSATGHRRPPLGGRTVAEHVEAIEGSVQESSGPVTTIYMLAGKPRGSEGPVRSVFRHFGSFQKGQAEAKVKRAIPKPPRQALNRKKGSPGLASGSVGQSPNSAPKAGLPGATGPMAVRPEEAVRGLGAGTESSRRAQEPVSGCGSPEQDPQKQAEEERQEEPEYENVVPISRPPEP
B9: EPHB4 (protein, UniProt P54760 16-987, looked up)
Ephrin type-B receptor 4: LEETLLNTKLETADLKWVTFPQVDGQWEELSGLDEEQHSVRTYEVCDVQRAPGQAHWLRTGWVPRRGAVHVYATLRFTMLECLSLPRAGRSCKETFTVFYYESDADTATALTPAWMENPYIKVDTVAAEHLTRKRPGAEATGKVNVKTLRLGPLSKAGFYLAFQDQGACMALLSLHLFYKKCAQLTVNLTRFPETVPRELVVPVAGSCVVDAVPAPGPSPSLYCREDGQWAEQPVTGCSCAPGFEAAEGNTKCRACAQGTFKPLSGEGSCQPCPANSHSNTIGSAVCQCRVGYFRARTDPRGAPCTTPPSAPRSVVSRLNGSSLHLEWSAPLESGGREDLTYALRCRECRPGGSCAPCGGDLTFDPGPRDLVEPWVVVRGLRPDFTYTFEVTALNGVSSLATGPVPFEPVNVTTDREVPPAVSDIRVTRSSPSSLSLAWAVPRAPSGAVLDYEVKYHEKGAEGPSSVRFLKTSENRAELRGLKRGASYLVQVRARSEAGYGPFGQEHHSQTQLDESEGWREQLALIAGTAVVGVVLVLVVIVVAVLCLRKQSNGREAEYSDKHGQYLIGHGTKVYIDPFTYEDPNEAVREFAKEIDVSYVKIEEVIGAGEFGEVCRGRLKAPGKKESCVAIKTLKGGYTERQRREFLSEASIMGQFEHPNIIRLEGVVTNSMPVMILTEFMENGALDSFLRLNDGQFTVIQLVGMLRGIASGMRYLAEMSYVHRDLAARNILVNSNLVCKVSDFGLSRFLEENSSDPTYTSSLGGKIPIRWTAPEAIAFRKFTSASDAWSYGIVMWEVMSFGERPYWDMSNQDVINAIEQDYRLPPPPDCPTSLHQLMLDCWQKDRNARPRFPQVVSALDKMIRNPASLKIVARENGGASHPLLDQRQPHYSAFGSVGEWLRAIKMGRYEESFAAAGFGSFELVSQISAEDLLRIGVTLAGHQKKILASVQHMKSQAKPGTPGGTGGPAPQY

This assay deals with plasma proteins. As to the kind of experiment: Plasma proteins modulated between baseline and day 28 in responders (CR, VGPR, PR; n = 19), Example 6 (Table 13). It counts as in vivo, human. To be noted: plasma protein (OLINK NPX); responders (CR, VGPR, PR; n = 19); itacitinib 200 mg or 300 mg QD with corticosteroids; day 28 vs baseline. In outline: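 Plasma at baseline/screening and day 28 profiled for >1000 proteins by OLINK proximity extension assay, reported as NPX (log2). Steroid-naive and steroid-refractory patients pooled. Paired and unpaired t tests, ANOVA and Pearson correlation applied; significance at P<0.05.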
For B1, the “Fold Change, Increased Expression from Baseline to Day 28” value stood at 1.5574.

Consider B2, for which the “Fold Change, Decreased Expression from Baseline to Day 28” value (from here on “Fold Change, Decreased Expression”) is −1.4779.

On to B3, for which the “Fold Change, Decreased Expression” value was −1.3124.

With B4, the “Fold Change, Decreased Expression” value was −1.2218.

For B5, the “Fold Change, Decreased Expression” value is given as −1.9124.

B6: the “Fold Change, Decreased Expression” value is −3.059.

B7: the “Fold Change, Decreased Expression” value is given as −1.307.

Turning to B8, the “Fold Change, Decreased Expression” value is on record as −1.3509.

In the case of B9, the “Fold Change, Decreased Expression” value is on record as −1.2339.
